Broadly, the Kd is the equilibrium constant for the complex coming apart. The low end stands for tighter binding, the high end for weaker binding.

Binding result and Kd data for two molecules are collected here from US20150118260A1 (GENERAL HOSPITAL, published 2015).

Assay [1] deals with T1, human CD80 on the human CD80-expressing leukemia cell line THP-1 (human, UniProt P33681 35-288).
T1 construct: whole, on cells
T1 sequence (looked up): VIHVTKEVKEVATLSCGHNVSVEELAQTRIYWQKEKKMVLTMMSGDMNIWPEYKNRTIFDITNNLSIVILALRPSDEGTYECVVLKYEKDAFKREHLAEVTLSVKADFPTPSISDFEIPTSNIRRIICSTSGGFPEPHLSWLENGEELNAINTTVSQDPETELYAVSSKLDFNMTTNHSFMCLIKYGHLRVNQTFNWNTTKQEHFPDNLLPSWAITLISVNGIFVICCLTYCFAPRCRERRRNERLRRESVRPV
Briefly: flow cytometry with biotinylated soluble porcine CTLA-4 on THP-1 cells.

The target of assay [2] is T2, porcine CD80 on the porcine CD80-expressing B-cell lymphoma cell line LCL13271-5E4 (porcine).
T2 construct: whole, on cells; The cell line was picked as CD80-expressing by staining with hamster anti-mouse CD80 mAb 16-10A1; CD86 on these cells is not addressed; also called LC13271-5E4
Briefly: flow cytometry on LCL13271-5E4 cells, MFI against concentration of biotinylated protein, non-linear least-squares fit.

Residue numbers refer to the chain shown, from its start. In names and notes the source's numbering stands.

B1: glycosylated soluble porcine CTLA-4 carrying 6xHis tag in the C-terminus (aa 38-161, 124 aa + 6xHis) (receptor)
chain: MHVAQPAVVLANSRGVASFVCEYGSAGKAAEVRVTVLRRAGSQMTEVCAATYTVEDELTFLDDSTCTGTSTENKVNLTIQGLRAVDTGLYICKVELLYPPPYYVGMGNGTQIYVIDPEPCPDSDHHHHHH
modifications: N-glycosylated completely or partially (Pichia pastoris); labeled with Sulfo-NHS biotin in the direct binding and KD assays, non-biotinylated in the blocking assay
notes: Expressed in Pichia pastoris X33; The entry includes the 6xHis tag; also called pCTLA-4-Gly; pCTLA4-6xHis
For the molecule B1, in assay [1], the binding result is recorded as “no binding”. Moreover, in assay [2], binding was put at a Kd of 13 nM.

B2: non-N-glycosylated soluble porcine CTLA-4 carrying 6xHis tag (aa 38-161, 124 aa + 6xHis; N76A, N108A) (receptor)
chain: B1 chain with N76A, N108A
modifications: labeled with Sulfo-NHS biotin in the direct binding and KD assays, non-biotinylated in the blocking assay
notes: also called pCTLA-4-Non-N-Gly; non-N-glycosylated porcine soluble CTLA-4
For B2, in assay [1], the binding result is on record as “no binding”. For the same molecule, the Kd in assay [2] was found to be 13 nM.
